# Test results as given in US20150344570A1 (published 2015).
# T1: FcγRIIa H (human, UniProt P12318 34-217)
# T1 construct: extracellular domain; also called FcgRIIa H; 2aH; not shown: His tag attached to the C terminus
# T1 sequence (looked up): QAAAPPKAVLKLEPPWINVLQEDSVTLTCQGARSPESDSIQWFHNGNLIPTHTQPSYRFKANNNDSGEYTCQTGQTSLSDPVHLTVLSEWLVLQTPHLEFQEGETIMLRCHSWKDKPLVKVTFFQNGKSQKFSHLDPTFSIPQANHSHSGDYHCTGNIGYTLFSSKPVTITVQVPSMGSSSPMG
# T2: FcγRIIb (human, UniProt P31994 43-217)
# T2 construct: extracellular domain; also called FcgRIIb; 2b; not shown: His tag attached to the C terminus
# T2 sequence (looked up): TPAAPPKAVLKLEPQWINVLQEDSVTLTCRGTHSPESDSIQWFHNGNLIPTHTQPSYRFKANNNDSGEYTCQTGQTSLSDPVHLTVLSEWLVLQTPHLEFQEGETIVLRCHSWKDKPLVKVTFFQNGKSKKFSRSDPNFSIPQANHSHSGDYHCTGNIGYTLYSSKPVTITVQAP
# What was measured:
# FcγRIIa H [1] = molecular target: T1, FcγRIIa H; experiment: SPR; He/Con for FcγRIIa H divided by He/Con for FcγRIIb
# FcγRIIa H [2] = molecular target: T1, FcγRIIa H; experiment: SPR (Biacore), antibody captured on antigen peptide chip, FcγR as analyte; relative binding activity
# Description: (§1) The heterodimerized antibodies He Abs in which one of the H chains was introduced with an alteration were assayed for their binding activities to each activating FcγR and inhibitory FcγR according to the method described in Example 4. […] The activating FcγRs in FIGS. 26, 27, 28, and 29 are FcγRIa, FcγRIIa (R), FcγRIIa (H), and FcγRIIIa, respectively.
# (§2) Analysis of interaction between objective antibody and the FcγR was carried out using Biacore T100 (GE Healthcare). HBS-EP+ (GE Healthcare) was used as the running buffer, and the measurement temperature was set to 25° C. Chips produced by immobilizing the antigen peptide by the amine coupling method to a Series S Sencor Chip CM5 (GE Healthcare), or alternatively, chips produced by allowing preliminarily biotinylated antigen peptides to interact with and immobilize onto a Series S Sensor Chip SA (certified) (GE Healthcare) were used. Antibodies of interest were captured onto an antigen peptide-immobilized chip, and allowed to interact to each FcγR diluted with running buffer. To regenerate and repeatedly use the chip, the antibodies captured on the chip were washed off by reacting 10 mM glycine-HCl, pH 1.5.
# FcγRIIb = molecular target: T2, FcγRIIb; experiment: as above
# Description: as §1, §2
Binder,He_2aH/2b (IIaH/IIb) (FcγRIIa H [1]),He/Con_2aH (FcγRIIa H [2]),He/Con_2b (FcγRIIb)
"GpH7-A5/GpH7-B3 variant D265_19Q/GpL16-k0 (antibody, human IgG1, kappa, Heterodimerized anti-glypican-3 IgG1; mutation in one H chain only; also called He Ab) heavy 1: not shown heavy 2: not shown light: DIVMTQSPLSLPVTPGEPASISCQASESLVHSNRNTYLHWYLQKPGQSPQLLIYKVSNRFSGVPDRFSGSGSGTDFTLKISRVEAEDVGVYYCSQNTHVPPTFGQGTKVEIERTVAAPSVFIFPPSDEQLKSGTASVVCLLNNFYPREAKVQWKVDNALQSGNSQESVTEQDSKDSTYSLSSTLTLSKADYEKHKVYACEVTHQGLSSPVTKSFNRGEC",1.43 ratio,47.7 % of GpH7-A5/GpH7-B3/GpL16-k0 (=100),33.4 % of GpH7-A5/GpH7-B3/GpL16-k0 (=100)
"GpH7-A5/GpH7-B3 variant H268_04F/GpL16-k0 (antibody, human IgG1, kappa, Heterodimerized anti-glypican-3 IgG1; mutation in one H chain only; also called He Ab) heavy 1: not shown heavy 2: not shown light: DIVMTQSPLSLPVTPGEPASISCQASESLVHSNRNTYLHWYLQKPGQSPQLLIYKVSNRFSGVPDRFSGSGSGTDFTLKISRVEAEDVGVYYCSQNTHVPPTFGQGTKVEIERTVAAPSVFIFPPSDEQLKSGTASVVCLLNNFYPREAKVQWKVDNALQSGNSQESVTEQDSKDSTYSLSSTLTLSKADYEKHKVYACEVTHQGLSSPVTKSFNRGEC",1.24 ratio,111 % of GpH7-A5/GpH7-B3/GpL16-k0 (=100),89.6 % of GpH7-A5/GpH7-B3/GpL16-k0 (=100)
"GpH7-A5/GpH7-B3 variant G236_19Q/GpL16-k0 (antibody, human IgG1, kappa, Heterodimerized anti-glypican-3 IgG1; mutation in one H chain only; also called He Ab) heavy 1: not shown heavy 2: not shown light: DIVMTQSPLSLPVTPGEPASISCQASESLVHSNRNTYLHWYLQKPGQSPQLLIYKVSNRFSGVPDRFSGSGSGTDFTLKISRVEAEDVGVYYCSQNTHVPPTFGQGTKVEIERTVAAPSVFIFPPSDEQLKSGTASVVCLLNNFYPREAKVQWKVDNALQSGNSQESVTEQDSKDSTYSLSSTLTLSKADYEKHKVYACEVTHQGLSSPVTKSFNRGEC",1.91 ratio,89.1 % of GpH7-A5/GpH7-B3/GpL16-k0 (=100),46.6 % of GpH7-A5/GpH7-B3/GpL16-k0 (=100)
"GpH7-A5/GpH7-B3 variant S239_12R/GpL16-k0 (antibody, human IgG1, kappa, Heterodimerized anti-glypican-3 IgG1; mutation in one H chain only; also called He Ab) heavy 1: not shown heavy 2: not shown light: DIVMTQSPLSLPVTPGEPASISCQASESLVHSNRNTYLHWYLQKPGQSPQLLIYKVSNRFSGVPDRFSGSGSGTDFTLKISRVEAEDVGVYYCSQNTHVPPTFGQGTKVEIERTVAAPSVFIFPPSDEQLKSGTASVVCLLNNFYPREAKVQWKVDNALQSGNSQESVTEQDSKDSTYSLSSTLTLSKADYEKHKVYACEVTHQGLSSPVTKSFNRGEC",1.46 ratio,57.1 % of GpH7-A5/GpH7-B3/GpL16-k0 (=100),39.1 % of GpH7-A5/GpH7-B3/GpL16-k0 (=100)
"GpH7-A5/GpH7-B3 variant H268_08L/GpL16-k0 (antibody, human IgG1, kappa, Heterodimerized anti-glypican-3 IgG1; mutation in one H chain only; also called He Ab) heavy 1: not shown heavy 2: not shown light: DIVMTQSPLSLPVTPGEPASISCQASESLVHSNRNTYLHWYLQKPGQSPQLLIYKVSNRFSGVPDRFSGSGSGTDFTLKISRVEAEDVGVYYCSQNTHVPPTFGQGTKVEIERTVAAPSVFIFPPSDEQLKSGTASVVCLLNNFYPREAKVQWKVDNALQSGNSQESVTEQDSKDSTYSLSSTLTLSKADYEKHKVYACEVTHQGLSSPVTKSFNRGEC",1.25 ratio,85 % of GpH7-A5/GpH7-B3/GpL16-k0 (=100),67.8 % of GpH7-A5/GpH7-B3/GpL16-k0 (=100)
"GpH7-A5/GpH7-B3 variant H268_06M/GpL16-k0 (antibody, human IgG1, kappa, Heterodimerized anti-glypican-3 IgG1; mutation in one H chain only; also called He Ab) heavy 1: not shown heavy 2: not shown light: DIVMTQSPLSLPVTPGEPASISCQASESLVHSNRNTYLHWYLQKPGQSPQLLIYKVSNRFSGVPDRFSGSGSGTDFTLKISRVEAEDVGVYYCSQNTHVPPTFGQGTKVEIERTVAAPSVFIFPPSDEQLKSGTASVVCLLNNFYPREAKVQWKVDNALQSGNSQESVTEQDSKDSTYSLSSTLTLSKADYEKHKVYACEVTHQGLSSPVTKSFNRGEC",1.29 ratio,84.8 % of GpH7-A5/GpH7-B3/GpL16-k0 (=100),65.7 % of GpH7-A5/GpH7-B3/GpL16-k0 (=100)
"GpH7-A5/GpH7-B3 variant S239_11K/GpL16-k0 (antibody, human IgG1, kappa, Heterodimerized anti-glypican-3 IgG1; mutation in one H chain only; also called He Ab) heavy 1: not shown heavy 2: not shown light: DIVMTQSPLSLPVTPGEPASISCQASESLVHSNRNTYLHWYLQKPGQSPQLLIYKVSNRFSGVPDRFSGSGSGTDFTLKISRVEAEDVGVYYCSQNTHVPPTFGQGTKVEIERTVAAPSVFIFPPSDEQLKSGTASVVCLLNNFYPREAKVQWKVDNALQSGNSQESVTEQDSKDSTYSLSSTLTLSKADYEKHKVYACEVTHQGLSSPVTKSFNRGEC",1.94 ratio,48.1 % of GpH7-A5/GpH7-B3/GpL16-k0 (=100),24.7 % of GpH7-A5/GpH7-B3/GpL16-k0 (=100)
"GpH7-A5/GpH7-B3 variant S239_16H/GpL16-k0 (antibody, human IgG1, kappa, Heterodimerized anti-glypican-3 IgG1; mutation in one H chain only; also called He Ab) heavy 1: not shown heavy 2: not shown light: DIVMTQSPLSLPVTPGEPASISCQASESLVHSNRNTYLHWYLQKPGQSPQLLIYKVSNRFSGVPDRFSGSGSGTDFTLKISRVEAEDVGVYYCSQNTHVPPTFGQGTKVEIERTVAAPSVFIFPPSDEQLKSGTASVVCLLNNFYPREAKVQWKVDNALQSGNSQESVTEQDSKDSTYSLSSTLTLSKADYEKHKVYACEVTHQGLSSPVTKSFNRGEC",1.2 ratio,59.4 % of GpH7-A5/GpH7-B3/GpL16-k0 (=100),49.4 % of GpH7-A5/GpH7-B3/GpL16-k0 (=100)
"GpH7-A5/GpH7-B3 variant D265_20W/GpL16-k0 (antibody, human IgG1, kappa, Heterodimerized anti-glypican-3 IgG1; mutation in one H chain only; also called He Ab) heavy 1: not shown heavy 2: not shown light: DIVMTQSPLSLPVTPGEPASISCQASESLVHSNRNTYLHWYLQKPGQSPQLLIYKVSNRFSGVPDRFSGSGSGTDFTLKISRVEAEDVGVYYCSQNTHVPPTFGQGTKVEIERTVAAPSVFIFPPSDEQLKSGTASVVCLLNNFYPREAKVQWKVDNALQSGNSQESVTEQDSKDSTYSLSSTLTLSKADYEKHKVYACEVTHQGLSSPVTKSFNRGEC",2.86 ratio,3.2 % of GpH7-A5/GpH7-B3/GpL16-k0 (=100),1.1 % of GpH7-A5/GpH7-B3/GpL16-k0 (=100)
"GpH7-A5/GpH7-B3 variant E269_01G/GpL16-k0 (antibody, human IgG1, kappa, Heterodimerized anti-glypican-3 IgG1; mutation in one H chain only; also called He Ab) heavy 1: not shown heavy 2: not shown light: DIVMTQSPLSLPVTPGEPASISCQASESLVHSNRNTYLHWYLQKPGQSPQLLIYKVSNRFSGVPDRFSGSGSGTDFTLKISRVEAEDVGVYYCSQNTHVPPTFGQGTKVEIERTVAAPSVFIFPPSDEQLKSGTASVVCLLNNFYPREAKVQWKVDNALQSGNSQESVTEQDSKDSTYSLSSTLTLSKADYEKHKVYACEVTHQGLSSPVTKSFNRGEC",1.39 ratio,71.5 % of GpH7-A5/GpH7-B3/GpL16-k0 (=100),51.5 % of GpH7-A5/GpH7-B3/GpL16-k0 (=100)
"GpH7-A5/GpH7-B3 variant V266_05P/GpL16-k0 (antibody, human IgG1, kappa, Heterodimerized anti-glypican-3 IgG1; mutation in one H chain only; also called He Ab) heavy 1: not shown heavy 2: not shown light: DIVMTQSPLSLPVTPGEPASISCQASESLVHSNRNTYLHWYLQKPGQSPQLLIYKVSNRFSGVPDRFSGSGSGTDFTLKISRVEAEDVGVYYCSQNTHVPPTFGQGTKVEIERTVAAPSVFIFPPSDEQLKSGTASVVCLLNNFYPREAKVQWKVDNALQSGNSQESVTEQDSKDSTYSLSSTLTLSKADYEKHKVYACEVTHQGLSSPVTKSFNRGEC",1.91 ratio,0.7 % of GpH7-A5/GpH7-B3/GpL16-k0 (=100),0.4 % of GpH7-A5/GpH7-B3/GpL16-k0 (=100)
"GpH7-A5/GpH7-B3 variant G236_20W/GpL16-k0 (antibody, human IgG1, kappa, Heterodimerized anti-glypican-3 IgG1; mutation in one H chain only; also called He Ab; GpH7-A5/GpH7-B3-03-20W/GpL16-k0) heavy 1: not shown heavy 2: not shown light: DIVMTQSPLSLPVTPGEPASISCQASESLVHSNRNTYLHWYLQKPGQSPQLLIYKVSNRFSGVPDRFSGSGSGTDFTLKISRVEAEDVGVYYCSQNTHVPPTFGQGTKVEIERTVAAPSVFIFPPSDEQLKSGTASVVCLLNNFYPREAKVQWKVDNALQSGNSQESVTEQDSKDSTYSLSSTLTLSKADYEKHKVYACEVTHQGLSSPVTKSFNRGEC",2.52 ratio,147 % of GpH7-A5/GpH7-B3/GpL16-k0 (=100),58.2 % of GpH7-A5/GpH7-B3/GpL16-k0 (=100)
"GpH7-A5/GpH7-B3 variant G236_16H/GpL16-k0 (antibody, human IgG1, kappa, Heterodimerized anti-glypican-3 IgG1; mutation in one H chain only; also called He Ab) heavy 1: not shown heavy 2: not shown light: DIVMTQSPLSLPVTPGEPASISCQASESLVHSNRNTYLHWYLQKPGQSPQLLIYKVSNRFSGVPDRFSGSGSGTDFTLKISRVEAEDVGVYYCSQNTHVPPTFGQGTKVEIERTVAAPSVFIFPPSDEQLKSGTASVVCLLNNFYPREAKVQWKVDNALQSGNSQESVTEQDSKDSTYSLSSTLTLSKADYEKHKVYACEVTHQGLSSPVTKSFNRGEC",3.51 ratio,98.2 % of GpH7-A5/GpH7-B3/GpL16-k0 (=100),27.9 % of GpH7-A5/GpH7-B3/GpL16-k0 (=100)
